Experiment [1] has as its target T1, murine CD200R1 (mouse, UniProt Q9ES57).
T1 chain: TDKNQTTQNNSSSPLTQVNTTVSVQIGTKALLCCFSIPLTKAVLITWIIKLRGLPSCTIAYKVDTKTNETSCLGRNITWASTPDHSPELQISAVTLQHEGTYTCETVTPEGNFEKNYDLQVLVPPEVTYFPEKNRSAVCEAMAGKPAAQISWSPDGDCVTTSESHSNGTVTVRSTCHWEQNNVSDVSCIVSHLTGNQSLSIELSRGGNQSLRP
The experiment can be described thus: SPR. On the technique in general: In SPR one partner is held on a chip, and binding of the other changes the refractive index at the surface.

Experiment [2] deals with T1, murine CD200R1. In words: SPR, 25C.
The target in experiment [3] is T2, human CD200R (human, UniProt Q8TD46).
T2 chain: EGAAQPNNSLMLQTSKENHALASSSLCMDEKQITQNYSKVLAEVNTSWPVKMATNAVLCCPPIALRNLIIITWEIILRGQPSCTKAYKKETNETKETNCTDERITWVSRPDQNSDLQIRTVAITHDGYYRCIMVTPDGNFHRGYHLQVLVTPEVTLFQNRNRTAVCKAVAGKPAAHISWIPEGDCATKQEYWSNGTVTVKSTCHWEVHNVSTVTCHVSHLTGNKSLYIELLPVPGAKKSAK
The experiment can be described thus: SPR, 25C.

The target of another experiment is T3, human CD200R1L (human, UniProt Q6Q8B3).
T3 chain: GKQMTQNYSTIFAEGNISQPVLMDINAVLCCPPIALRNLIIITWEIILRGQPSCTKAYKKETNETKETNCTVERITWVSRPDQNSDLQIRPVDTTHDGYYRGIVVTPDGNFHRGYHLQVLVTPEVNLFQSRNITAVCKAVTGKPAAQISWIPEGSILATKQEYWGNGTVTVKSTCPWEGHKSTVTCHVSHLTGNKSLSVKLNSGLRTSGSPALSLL
The experiment can be described thus: SPR, 25C.

In experiment [4] the target is T2, human CD200R. In words: SPR, 25C.

Numbering of substitutions follows the chain as printed. Names and notes keep the numbering of the source. Where two headings read alike, the source gives them in different places.

B1: DS-227 (protein)
chain: QVEVVTQDERKALHTTASLRCSLKTSQEPLIVTWQKKKAVSPENMVTYSKTYGVVIQPAYKDRINVTELGLWNSSITFWNTTLEDEGCYMCLFNIFGSQKVSGTACLTLYVQPIVHLHYNYFEDHLNITCSATARPAPAISWKGTGTGIENSTESHFHSNGTTSVTSILRVKDPKTQVGKEVICQVLYLGNVIDYKQSLDKG
In the experiment with murine CD200R1 [1], B1 yielded a Kd of 43.3 nM.

B2: DS-198 (protein)
chain: B1 chain with Y52H, I95T
modifications: wild-type murine CD200 fused to murine IgG2a Fc
Regarding B2, in the experiment with murine CD200R1 [1], the Kd is 584 nM. Compared with the last molecule, the Kd is about 13-fold higher.

B3: DS-118 (antibody)
chain: QVQVVTQDEREQLYTPASLKCSLQNAQEALIVTWQKKKAVSPENMVTFSENHGVVIQPAYKDKINITQLGLQNSTITFWNITLEDEGCYMCLFNTFGFGYYSGTACLTVYVQPIVSLHYKFSEDHLNITCSATARPAPMVFWKVPRSGIENSTVTLSHPNGTTSVTSILHIKDPKNQVGKEVICQVLHLGTVTDFKQTVNKGPPCPPCPAPEFLGGPSVFLFPPKPKDTLMISRTPEVTCVVVDVSQEDPEVQFNWYVDGVEVHNAKTKPREEQFNSTYRVVSVLTVLHQDWLNGKEYKCKVSNKGLPSSIEKTISKAKGQPREPQVYTLPPSQEEMTKNQVSLTCLVKGFYPSDIAVEWESNGQPENNYKTTPPVLDSDGSFFLYSRLTVDKSRWQEGNVFSCSVMHEALHNHYTQKSLSLSLGK
As for B3, the binding result in the experiment with murine CD200R1 [2] and in the experiment with human CD200R1L was “no binding” in each case. Also, the Kd with human CD200R [3] and in the experiment with human CD200R [4] was 1.3 nM in each case.

B4: DS-20 (antibody)
chain: QVQVVTQDEREQLYTPASLKCSLQNAQEALIVTWQKKKAVSPENMVTFSENHGVVIQPAYKDKINITQLGLQNSTITFWNITLEDEGCYMCLFNTFGFGKISGTACLTVYVQPIVSLHYKFSEDHLNITCSATARPAPMVFWKVPRSGIENSTVTLSHPNGTTSVTSILHIKDPKNQVGKEVICQVLHLGTVTDFKQTVNKG
modifications: wild-type CD200 ectodomain fused to human IgG1 Fc (dimer); UniProt numbering
Take B4: the binding result with murine CD200R1 [2] and with human CD200R1L was “no binding” throughout. Further, in the experiment with human CD200R [3], the Kd was 111 nM.

B5: DS-155 (antibody)
chain: B4 chain
modifications: wild-type CD200 ectodomain fused to human IgG4 S228P Fc (dimer); UniProt numbering
For B5, the binding result with murine CD200R1 [2] and with human CD200R1L was “no binding” in each case. Besides, the Kd with human CD200R [3] and with human CD200R [4] was 179 nM each time.

Broadly, the Kd is a measure of binding affinity in units of concentration. Low values mean a tighter complex, high ones a looser complex.
